According to US9862971B2 (BUNDESREPUBLIK DEUTSCHLAND, LETZTVERTRETEN DURCH DEN …, dated 2018):

B1: HmutscFvCD20Δ19 (other)
chain: MSRIVINREHLMIDRPYVLLAVLFVMFLSLIGLLAIAGIRLHRAAIYTAEIHKSLSTNLDVTNSIEHQVKDVLTPLFKIIGDEVGLRTPQRFTDLVKFISDKIKFLNPDREYDFRDLTWCINPPERIKLDYDQYCADVAAEELMNALVNSTLLETRTTNQFLAVSKGNCSGPTTIRGQFSNMSLSLLDLYLGRGYNVSSIVTMTSQGMYGGTYLVEKPNLSSKRSELSQLSMYRVFEVGVIRNPGLGAPVFHMTNYLEQPVSNDLSNCMVALGELKLAALCHGEDSITIPYQGSGKGVSFQLVKLGVWKSPTDMQSWVPLSTDDPVIDRLYLSSHRGVIADNQAKWAVPTTRTDDKLRMETCFQQACKGKIQALCENPEWAPLKDNRIPSYGVLSVDLSLTVELKIKIASGFGPLITHGSGMDLYKSNHNNVYWLTIPPMKNLALGVINTLEWIPRFKVSPALFTVPIKEAGGDCHAPTYLPAEVDGDVKLSSNLVILPGQDLQYVLATYDTSAVEHAVVYYVYSPSRLSSYFYPFRLPIKGVPIELQVECFTWDQKLWCRHFCVLADSESGGHITHSGMVGMGVSCTVTREDGTNAAQPAIEGRMAQVQLVQSGAELVKPGASVKMSCKASGYTFTSYNMHWVKQTPGQGLEWIGAIYPGNGDTSYNQKFKGKATLTADKSSSTAYMQLSSLTSEDSAVYYCARAQLRPNYWYFDVWGAGTTVTVSKISGGGGSGGGGSGGGGSGGSSDIVLSQSPAILSASPGEKVTMTCRASSSVSYMHWYQQKPGSSPKPWIYATSNLASGVPARFSGSGSGTSYSLTISRVEAEDAATYYCQQWISNPPTFGAGTKLELKAAARGSHHHHHH
B2: HcΔ18 (other)
chain: MGSRIVINREHLMIDRPYVLLAVLFVMFLSLIGLLAIAGIRLHRAAIYTAEIHKSLSTNLDVTNSIEHQVKDVLTPLFKIIGDEVGLRTPQRFTDLVKFISDKIKFLNPDREYDFRDLTWCINPPERIKLDYDQYCADVAAEELMNALVNSTLLETRTTNQFLAVSKGNCSGPTTIRGQFSNMSLSLLDLYLGRGYNVSSIVTMTSQGMYGGTYLVEKPNLSSKRSELSQLSMYRVFEVGVIRNPGLGAPVFHMTNYLEQPVSNDLSNCMVALGELKLAALCHGEDSITIPYQGSGKGVSFQLVKLGVWKSPTDMQSWVPLSTDDPVIDRLYLSSHRGVIADNQAKWAVPTTRTDDKLRMETCFQQACKGKIQALCENPEWAPLKDNRIPSYGVLSVDLSLTVELKIKIASGFGPLITHGSGMDLYKSNHNNVYWLTIPPMKNLALGVINTLEWIPRFKVSPYLFTVPIKEAGGDCHAPTYLPAEVDGDVKLSSNLVILPGQDLQYVLATYDTSRVEHAVVYYVYSPSRSFSYFYPFRLPIKGVPIELQVECFTWDQKLWCRHFCVLADSESGGHITHSGMVGMGVSCTVTREDGTNRR
B3: HcΔ24+4A (other)
chain: MAAAANREHLMIDRPYVLLAVLFVMFLSLIGLLAIAGIRLHRAAIYTAEIHKSLSTNLDVTNSIEHQVKDVLTPLFKIIGDEVGLRTPQRFTDLVKFISDKIKFLNPDREYDFRDLTWCINPPERIKLDYDQYCADVAAEELMNALVNSTLLETRTTNQFLAVSKGNCSGPTTIRGQFSNMSLSLLDLYLGRGYNVSSIVTMTSQGMYGGTYLVEKPNLSSKRSELSQLSMYRVFEVGVIRNPGLGAPVFHMTNYLEQPVSNDLSNCMVALGELKLAALCHGEDSITIPYQGSGKGVSFQLVKLGVWKSPTDMQSWVPLSTDDPVIDRLYLSSHRGVIADNQAKWAVPTTRTDDKLRMETCFQQACKGKIQALCENPEWAPLKDNRIPSYGVLSVDLSLTVELKIKIASGFGPLITHGSGMDLYKSNHNNVYWLTIPPMKNLALGVINTLEWIPRFKVSPYLFTVPIKEAGGDCHAPTYLPAEVDGDVKLSSNLVILPGQDLQYVLATYDTSRVEHAVVYYVYSPSRSFSYFYPFRLPIKGVPIELQVECFTWDQKLWCRHFCVLADSESGGHITHSGMVGMGVSCTVTREDGTNRR
B4: HcΔ14 (other)
chain: MPHPKGSRIVINREHLMIDRPYVLLAVLFVMFLSLIGLLAIAGIRLHRAAIYTAEIHKSLSTNLDVTNSIEHQVKDVLTPLFKIIGDEVGLRTPQRFTDLVKFISDKIKFLNPDREYDFRDLTWCINPPERIKLDYDQYCADVAAEELMNALVNSTLLETRTTNQFLAVSKGNCSGPTTIRGQFSNMSLSLLDLYLGRGYNVSSIVTMTSQGMYGGTYLVEKPNLSSKRSELSQLSMYRVFEVGVIRNPGLGAPVFHMTNYLEQPVSNDLSNCMVALGELKLAALCHGEDSITIPYQGSGKGVSFQLVKLGVWKSPTDMQSWVPLSTDDPVIDRLYLSSHRGVIADNQAKWAVPTTRTDDKLRMETCFQQACKGKIQALCENPEWAPLKDNRIPSYGVLSVDLSLTVELKIKIASGFGPLITHGSGMDLYKSNHNNVYWLTIPPMKNLALGVINTLEWIPRFKVSPYLFTVPIKEAGGDCHAPTYLPAEVDGDVKLSSNLVILPGQDLQYVLATYDTSRVEHAVVYYVYSPSRSFSYFYPFRLPIKGVPIELQVECFTWDQKLWCRHFCVLADSESGGHITHSGMVGMGVSCTVTREDGTNRR
B5: HcΔ22 (other)
chain: MVINREHLMIDRPYVLLAVLFVMFLSLIGLLAIAGIRLHRAAIYTAEIHKSLSTNLDVTNSIEHQVKDVLTPLFKIIGDEVGLRTPQRFTDLVKFISDKIKFLNPDREYDFRDLTWCINPPERIKLDYDQYCADVAAEELMNALVNSTLLETRTTNQFLAVSKGNCSGPTTIRGQFSNMSLSLLDLYLGRGYNVSSIVTMTSQGMYGGTYLVEKPNLSSKRSELSQLSMYRVFEVGVIRNPGLGAPVFHMTNYLEQPVSNDLSNCMVALGELKLAALCHGEDSITIPYQGSGKGVSFQLVKLGVWKSPTDMQSWVPLSTDDPVIDRLYLSSHRGVIADNQAKWAVPTTRTDDKLRMETCFQQACKGKIQALCENPEWAPLKDNRIPSYGVLSVDLSLTVELKIKIASGFGPLITHGSGMDLYKSNHNNVYWLTIPPMKNLALGVINTLEWIPRFKVSPYLFTVPIKEAGGDCHAPTYLPAEVDGDVKLSSNLVILPGQDLQYVLATYDTSRVEHAVVYYVYSPSRSFSYFYPFRLPIKGVPIELQVECFTWDQKLWCRHFCVLADSESGGHITHSGMVGMGVSCTVTREDGTNRR
B6: HcΔ24 (other)
chain: MNREHLMIDRPYVLLAVLFVMFLSLIGLLAIAGIRLHRAAIYTAEIHKSLSTNLDVTNSIEHQVKDVLTPLFKIIGDEVGLRTPQRFTDLVKFISDKIKFLNPDREYDFRDLTWCINPPERIKLDYDQYCADVAAEELMNALVNSTLLETRTTNQFLAVSKGNCSGPTTIRGQFSNMSLSLLDLYLGRGYNVSSIVTMTSQGMYGGTYLVEKPNLSSKRSELSQLSMYRVFEVGVIRNPGLGAPVFHMTNYLEQPVSNDLSNCMVALGELKLAALCHGEDSITIPYQGSGKGVSFQLVKLGVWKSPTDMQSWVPLSTDDPVIDRLYLSSHRGVIADNQAKWAVPTTRTDDKLRMETCFQQACKGKIQALCENPEWAPLKDNRIPSYGVLSVDLSLTVELKIKIASGFGPLITHGSGMDLYKSNHNNVYWLTIPPMKNLALGVINTLEWIPRFKVSPYLFTVPIKEAGGDCHAPTYLPAEVDGDVKLSSNLVILPGQDLQYVLATYDTSRVEHAVVYYVYSPSRSFSYFYPFRLPIKGVPIELQVECFTWDQKLWCRHFCVLADSESGGHITHSGMVGMGVSCTVTREDGTNRR
B7: HcΔ19 (other)
chain: MSRIVINREHLMIDRPYVLLAVLFVMFLSLIGLLAIAGIRLHRAAIYTAEIHKSLSTNLDVTNSIEHQVKDVLTPLFKIIGDEVGLRTPQRFTDLVKFISDKIKFLNPDREYDFRDLTWCINPPERIKLDYDQYCADVAAEELMNALVNSTLLETRTTNQFLAVSKGNCSGPTTIRGQFSNMSLSLLDLYLGRGYNVSSIVTMTSQGMYGGTYLVEKPNLSSKRSELSQLSMYRVFEVGVIRNPGLGAPVFHMTNYLEQPVSNDLSNCMVALGELKLAALCHGEDSITIPYQGSGKGVSFQLVKLGVWKSPTDMQSWVPLSTDDPVIDRLYLSSHRGVIADNQAKWAVPTTRTDDKLRMETCFQQACKGKIQALCENPEWAPLKDNRIPSYGVLSVDLSLTVELKIKIASGFGPLITHGSGMDLYKSNHNNVYWLTIPPMKNLALGVINTLEWIPRFKVSPYLFTVPIKEAGGDCHAPTYLPAEVDGDVKLSSNLVILPGQDLQYVLATYDTSRVEHAVVYYVYSPSRSFSYFYPFRLPIKGVPIELQVECFTWDQKLWCRHFCVLADSESGGHITHSGMVGMGVSCTVTREDGTNRR
B8: HcΔ21 (other)
chain: MIVINREHLMIDRPYVLLAVLFVMFLSLIGLLAIAGIRLHRAAIYTAEIHKSLSTNLDVTNSIEHQVKDVLTPLFKIIGDEVGLRTPQRFTDLVKFISDKIKFLNPDREYDFRDLTWCINPPERIKLDYDQYCADVAAEELMNALVNSTLLETRTTNQFLAVSKGNCSGPTTIRGQFSNMSLSLLDLYLGRGYNVSSIVTMTSQGMYGGTYLVEKPNLSSKRSELSQLSMYRVFEVGVIRNPGLGAPVFHMTNYLEQPVSNDLSNCMVALGELKLAALCHGEDSITIPYQGSGKGVSFQLVKLGVWKSPTDMQSWVPLSTDDPVIDRLYLSSHRGVIADNQAKWAVPTTRTDDKLRMETCFQQACKGKIQALCENPEWAPLKDNRIPSYGVLSVDLSLTVELKIKIASGFGPLITHGSGMDLYKSNHNNVYWLTIPPMKNLALGVINTLEWIPRFKVSPYLFTVPIKEAGGDCHAPTYLPAEVDGDVKLSSNLVILPGQDLQYVLATYDTSRVEHAVVYYVYSPSRSFSYFYPFRLPIKGVPIELQVECFTWDQKLWCRHFCVLADSESGGHITHSGMVGMGVSCTVTREDGTNRR
B9: HcΔ23 (other)
chain: MINREHLMIDRPYVLLAVLFVMFLSLIGLLAIAGIRLHRAAIYTAEIHKSLSTNLDVTNSIEHQVKDVLTPLFKIIGDEVGLRTPQRFTDLVKFISDKIKFLNPDREYDFRDLTWCINPPERIKLDYDQYCADVAAEELMNALVNSTLLETRTTNQFLAVSKGNCSGPTTIRGQFSNMSLSLLDLYLGRGYNVSSIVTMTSQGMYGGTYLVEKPNLSSKRSELSQLSMYRVFEVGVIRNPGLGAPVFHMTNYLEQPVSNDLSNCMVALGELKLAALCHGEDSITIPYQGSGKGVSFQLVKLGVWKSPTDMQSWVPLSTDDPVIDRLYLSSHRGVIADNQAKWAVPTTRTDDKLRMETCFQQACKGKIQALCENPEWAPLKDNRIPSYGVLSVDLSLTVELKIKIASGFGPLITHGSGMDLYKSNHNNVYWLTIPPMKNLALGVINTLEWIPRFKVSPYLFTVPIKEAGGDCHAPTYLPAEVDGDVKLSSNLVILPGQDLQYVLATYDTSRVEHAVVYYVYSPSRSFSYFYPFRLPIKGVPIELQVECFTWDQKLWCRHFCVLADSESGGHITHSGMVGMGVSCTVTREDGTNRR

Legend:
Experiment in all cases: cell-based or functional assay
[1] = target: human CD20 (human, UniProt P11836)
[2] = target: T1, CD46 (human, UniProt P15529)
[3] = target: T1, CD46; remark: listed apart in the source

Binder	titer [t.u./ml] of HIV-1 vector particles on HT1080-CD20 cells, concentrated supernatant [1] [t.u./ml]	titer [t.u./ml] of HIV-1 vector particles on 293T cells, concentrated supernatant [2] [t.u./ml]	titer [t.u./ml] of HIV-1 vector particles on U-87MG cells, concentrated supernatant [2] [t.u./ml]	titer [t.u./ml] of HIV-1 vector particles on HT1080 cells, not concentrated supernatant [3] [t.u./ml]
B1	1.32e+06	–	–	–
B2	–	1e+06	≥ 1e+06	–
B3	–	1.6e+06	≥ 1e+06	–
B4	–	2900	3420	–
B5	–	–	–	140
B6	–	–	–	88
B7	–	200000	≥ 1e+06	–
B8	–	–	–	1500
B9	–	–	–	130
